The supplement of paper PMC10126150
± gives the standard deviation of the averaged measurements.

These sequences were tested on ATP (assay: switch fluorescence ratio, 500 uM ATP over buffer (Cy3 cluster intensity, sum of 5 cycles each) (fold (ratio)); higher = stronger signal-on switching upon ATP binding; sequences stand for … in TCGTCGGCAGCGTCAGATGTGTATAAGAGACAGTTTTTTTTTTTTTTTTTTTTTTTTT…TC). Settings: aptamer strand: ATP DNA aptamer (quencher-CACCTGGGGGAGTATTGCGGAGGAAGG + anchor), 100 nM annealed; ATP concentration: 500 uM.
How it was run: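 For every switch-domain sequence, the fluorescence ratio is the mean of per-cluster values, each being summed target-cycle Cy3 intensity over summed buffer-cycle Cy3 intensity. Clusters outside 100-1000 RFU were excluded. On a modified Illumina MiSeq flow-cell, the Cy3-labelled switching-strand clusters were annealed to 100 nM quencher-labelled ATP aptamer, imaged in selection buffer and then after 15 min with 500 uM ATP at 22 °C. Five such cycles were run, with NaOH stripping and re-annealing between them.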
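Further: ATP exposure 15 min at 22 °C before imaging.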

In order of falling switch fluorescence ratio:
1. AATTCGTTAC  1.63 ± 0.76
2. AATTCCGATG  1.29 ± 0.076
3. AATTCACGTT  1.17 ± 0.19
4. AATTCGCAGT  1.17 ± 0.23
5. AATTTCCGAG  1.17 ± 0.037
6. AATGTACCCA  1.09 ± 0.017
7. AATGGGCGAG  1.08 ± 0.18
8. AATTGTGCCT  1.08 ± 0.055
9. AATGCTGGTG  1.075 ± 0.01
10. AATTGCTACC  1.07 ± 0.013
11. AATGGGGCAA  1.058 ± 0.0077
12. AATGTGCCTT  1.056 ± 0.0057
13. AATGGCAATG  1.05 ± 0.026
14. AATTGACCGA  1.05 ± 0.013
15. AATTTGCGAC  1.05 ± 0.011
16. AATTAAACGA  1.036 ± 0.0068
17. AATTAAGGTT  1.04 ± 0.03
18. AATTACGATT  1.04 ± 0.034
19. AATTCCTGGT  1.04 ± 0.023
20. AATTTGGGTT  1.04 ± 0.053
21. AATTTGGTAT  1.04 ± 0.011
22. AATGGCATTC  1.03 ± 0.038
23. AATGGTATGT  1.032 ± 0.0088
24. AATGTATGTT  1.032 ± 0.0074
25. AATGTCGACC  1.026 ± 0.0022
26. AATTAGGGTA  1.03 ± 0.012
27. AATTATACCC  1.03 ± 0.029
28. AATTTCACGG  1.03 ± 0.066
29. AATTTGGACT  1.03 ± 0.027
30. AATGGGGGGT  1.02 ± 0.053
31. AATGGGGGTG  1.02 ± 0.032
32. AATTCAAAAA  1.02 ± 0.021
33. AATTCCGGGT  1.02 ± 0.031
34. AATTGGATCG  1.016 ± 0.0018
35. AATTGGGCTT  1.02 ± 0.043
36. AATTGGGTAA  1.025 ± 0.0083
37. AATTTGAAAG  1.017 ± 0.01
38. AATGCTGGTT  1.01 ± 0.015
39. AATGGGAATG  1.013 ± 0.0052
40. AATGGGCCGG  1.013 ± 0.0076
41. AATGTAAATA  1.01 ± 0.018
42. AATTGTTGGT  1.01 ± 0.036
43. AATTTCGGGA  1.01 ± 0.044
44. AATTTGGCCC  1.01 ± 0.031
45. AATGCTGACA  1 ± 0.016
46. AATGGACGTG  1 ± 0.028
47. AATGGAGATG  1 ± 0.041
48. AATGGGTCAT  1.004 ± 0.0013
49. AATTTAGAGT  1 ± 0.012
50. AATGGTTGGG  0.9989 ± 0.0078
51. AATTGGGCTA  0.9994 ± 0.0056
52. AATTTGTTCT  0.999 ± 0.025
53. AATGTCGAAA  0.998 ± 0.018
54. AATGGAGTGG  0.997 ± 0.028
55. AATGTAGACG  0.997 ± 0.13
56. AATTGGGCAG  0.9971 ± 0.0038
57. AATTTGTATT  0.997 ± 0.011
58. AATTTTAATG  0.997 ± 0.022
59. AATTCGACGT  0.9963 ± 0.0091
60. AATTGGAGGA  0.996 ± 0.033
61. AATGGCAATT  0.995 ± 0.033
62. AATGTTCAAA  0.995 ± 0.023
63. AATGTTTTGA  0.995 ± 0.016
64. AATGTTTTGG  0.9952 ± 0.0081
65. AATTAGATTC  0.994 ± 0.055
66. AATTATTTT  0.993 ± 0.02
67. AATTCGTTGG  0.993 ± 0.026
68. AATTGGAAGG  0.993 ± 0.012
69. AATGGGTAGT  0.991 ± 0.042
70. AATTGTATAG  0.9913 ± 0.0062
71. AATTGGGTTT  0.99 ± 0.023
72. AATGGCAGGG  0.988 ± 0.039
73. AATGGGGGAA  0.9881 ± 0.0087
74. AATTTCCTTT  0.988 ± 0.036
75. AATTTCGGGT  0.9877 ± 0.0096
76. AATTCGTGCG  0.9872 ± 0.0086
77. AATTTGTTAG  0.985 ± 0.018
78. AATGGCATTA  0.984 ± 0.03
79. AATGTGGATA  0.984 ± 0.028
80. AATTGATAAA  0.984 ± 0.042
81. AATTGGTTAG  0.984 ± 0.054
82. AATTGATTGG  0.983 ± 0.032
83. AATTCTTGGG  0.981 ± 0.018
84. AATTGTGTTG  0.98 ± 0.031
85. AATGTTAAAT  0.979 ± 0.02
86. AATTGCGGCC  0.979 ± 0.045
87. AATGTATCGT  0.978 ± 0.021
88. AATTTGAGTG  0.977 ± 0.032
89. AATTGGACTA  0.976 ± 0.063
90. AATTAAAAAG  0.975 ± 0.023
91. AATTAAGGAT  0.975 ± 0.032
92. AATTGAAACA  0.9731 ± 0.0068
93. AATTGAAGGC  0.972 ± 0.022
94. AATTGATGTT  0.972 ± 0.025
95. AATTTGAGGA  0.972 ± 0.02
96. AATTTGTTTC  0.972 ± 0.021
97. AATGGGCTGA  0.971 ± 0.015
98. AATTAGGTTG  0.967 ± 0.025
99. AATTGTGGAG  0.966 ± 0.023
100. AATTCGTCG  0.9557 ± 0.0045
